# Assay results published in EP4682166A1 (Guangzhou Enmai Biotechnology Co., Ltd, dated 2026).
# B1: 240B10-1 mutant D27K (VH) (antibody, V domains shown)
# VH: QSLEESGGRLVTPGGSLTLTCTVSGIKLSSYTMGWVRQAPGKGLEYIGIISGGGRTYYASWAKGRFTISKTSSTTVDLKVTSLTTEDTATYFCARIYTLWGQGTLVTVSS
# VL: QVLTQTLASVSAAVGGTVTINCQSSQSVYNNDYLAWFQQKSGQPPKQLIHSASKLASGVPSRFKGSGSGTQFTLTINDVQCDDAATYYCLGGYDCYSADCNVFGGGTEVVVK
# B2: 98G10-H-1 (antibody, V domains shown)
# VH: QEQLEESGGDLVKPEGSLTLTCTASGFSFSASYHICWVRQAPGKGLEWIACIYGGSSGSAYYASWAKGRFTISKTSSTTVTLQMTSLTAADTATYFCARAGYYNYGSAGDIYPSSFKLWGPGTLVTVSS
# VL: DIVMTQTPASVEAAVGGTVTINCQASQSISTALAWYQQKPGQPPKLLIYTASKVASGVPSRFSGSGSGTQFTLTISDLECADAATYYCQNYYYSSSSITFGGGTEVVVK
# notes: also called 98G10 W34H (VH)
# B3: 98G10-H-3 (antibody, V domains shown)
# VH: QEQLEESGGDLVKPEGSLTLTCTASGFSFSASYWICWVRQAPGKGLEWIACIYGGSSGSAYYASWAKGRFTISKTSSTTVTLQMTSLTAADTATYFCARAGYYNYGSAGDIRPSSFKLWGPGTLVTVSS
# VL: DIVMTQTPASVEAAVGGTVTINCQASQSISTALAWYQQKPGQPPKLLIYTASKVASGVPSRFSGSGSGTQFTLTISDLECADAATYYCQNYYYSSSSITFGGGTEVVVK
# notes: also called 98G10 Y112R (VH)
# B4: 98G10-H-11 (antibody, V domains shown)
# VH: QEQLEESGGDLVKPEGSLTLTCTASGFSFSASYHICWVRQAPGKGLEWIACIYGGSSGSAYYASWAKGRFTISKTSSTTVTLQMTSLTAADTATYFCARAGYYNYGSAGDIRPSSFKLWGPGTLVTVSS
# VL: DIVMTQTPASVEAAVGGTVTINCQASQSISTALAWYQQKPGQPPKLLIYTASKVASGVPSRFSGSGSGTQFTLTISDLECADAATYYCQNYYYSSSSITFGGGTEVVVK
# notes: also called 98G10 W34H, Y112R (VH)
# B5: 98G10-H-9 (antibody, V domains shown)
# VH: QEQLEESGGDLVKPEGSLTLTCTASGFSFSASYHICWVRQAPGKGLEWIACIYGGSSGSAYYASWAKGRFTISKTSSTTVTLQMTSLTAADTATYFCARAGYYNYGSAGDILPSSFKLWGPGTLVTVSS
# VL: DIVMTQTPASVEAAVGGTVTINCQASQSISTALAWYQQKPGQPPKLLIYTASKVASGVPSRFSGSGSGTQFTLTISDLECADAATYYCQNYYYSSSSITFGGGTEVVVK
# notes: also called 98G10 W34H, Y112L (VH)
# B6: 98G10-L-3 (antibody, V domains shown)
# VH: QEQLEESGGDLVKPEGSLTLTCTASGFSFSASYWICWVRQAPGKGLEWIACIYGGSSGSAYYASWAKGRFTISKTSSTTVTLQMTSLTAADTATYFCARAGYYNYGSAGDIYPSSFKLWGPGTLVTVSS
# VL: DIVMTQTPASVEAAVGGTVTINCQASQSISTALAWYQQKPGQPPKLLIYTASKVASGVPSRFSGSGSGTQFTLTISDLECADAATYYCQNYYQSSSSITFGGGTEVVVK
# notes: also called 98G10 Y93Q (VL)
# B7: 98G10-L-2 (antibody, V domains shown)
# VH: QEQLEESGGDLVKPEGSLTLTCTASGFSFSASYWICWVRQAPGKGLEWIACIYGGSSGSAYYASWAKGRFTISKTSSTTVTLQMTSLTAADTATYFCARAGYYNYGSAGDIYPSSFKLWGPGTLVTVSS
# VL: DIVMTQTPASVEAAVGGTVTINCQASQSISTALAWYQQKPGQPPKLLIYTASKVASGVPSRFSGSGSGTQFTLTISDLECADAATYYCQNYYSSSSSITFGGGTEVVVK
# notes: also called 98G10 Y93S (VL)
# B8: 98G10-H-7 (antibody, V domains shown)
# VH: QEQLEESGGDLVKPEGSLTLTCTASGFSFSASYRICWVRQAPGKGLEWIACIYGGSSGSAYYASWAKGRFTISKTSSTTVTLQMTSLTAADTATYFCARAGYYNYGSAGDIRPSSFKLWGPGTLVTVSS
# VL: DIVMTQTPASVEAAVGGTVTINCQASQSISTALAWYQQKPGQPPKLLIYTASKVASGVPSRFSGSGSGTQFTLTISDLECADAATYYCQNYYYSSSSITFGGGTEVVVK
# notes: also called 98G10 W34R, Y112R (VH)
# B9: 98G10-H-12 (antibody, V domains shown)
# VH: QEQLEESGGDLVKPEGSLTLTCTASGFSFSASYHICWVRQAPGKGLEWIACIYGGSSGSAYYASWAKGRFTISKTSSTTVTLQMTSLTAADTATYFCARAGYYNYGSAGDISPSSFKLWGPGTLVTVSS
# VL: DIVMTQTPASVEAAVGGTVTINCQASQSISTALAWYQQKPGQPPKLLIYTASKVASGVPSRFSGSGSGTQFTLTISDLECADAATYYCQNYYYSSSSITFGGGTEVVVK
# notes: also called 98G10 W34H, Y112S (VH)
# B10: 98G10-H-8 (antibody, V domains shown)
# VH: QEQLEESGGDLVKPEGSLTLTCTASGFSFSASYDICWVRQAPGKGLEWIACIYGGSSGSAYYASWAKGRFTISKTSSTTVTLQMTSLTAADTATYFCARAGYYNYGSAGDIRPSSFKLWGPGTLVTVSS
# VL: DIVMTQTPASVEAAVGGTVTINCQASQSISTALAWYQQKPGQPPKLLIYTASKVASGVPSRFSGSGSGTQFTLTISDLECADAATYYCQNYYYSSSSITFGGGTEVVVK
# notes: also called 98G10 W34D, Y112R (VH)
# B11: 98G10-H-5 (antibody, V domains shown)
# VH: QEQLEESGGDLVKPEGSLTLTCTASGFSFSASYWICWVRQAPGKGLEWIACIYGGSSGSAYYASWAKGRFTISKTSSTTVTLQMTSLTAADTATYFCARAGYYNYGSAGDIEPSSFKLWGPGTLVTVSS
# VL: DIVMTQTPASVEAAVGGTVTINCQASQSISTALAWYQQKPGQPPKLLIYTASKVASGVPSRFSGSGSGTQFTLTISDLECADAATYYCQNYYYSSSSITFGGGTEVVVK
# notes: also called 98G10 Y112E (VH)
# B12: 98G10-L-1 (antibody, V domains shown)
# VH: QEQLEESGGDLVKPEGSLTLTCTASGFSFSASYWICWVRQAPGKGLEWIACIYGGSSGSAYYASWAKGRFTISKTSSTTVTLQMTSLTAADTATYFCARAGYYNYGSAGDIYPSSFKLWGPGTLVTVSS
# VL: DIVMTQTPASVEAAVGGTVTINCQASQSISTALAWYQQKPGQPPKLLIYTASKVASGVPSRFSGSGSGTQFTLTISDLECADAATYYCQNYYRSSSSITFGGGTEVVVK
# notes: also called 98G10 Y93R (VL)
# B13: 98G10-H-4 (antibody, V domains shown)
# VH: QEQLEESGGDLVKPEGSLTLTCTASGFSFSASYWICWVRQAPGKGLEWIACIYGGSSGSAYYASWAKGRFTISKTSSTTVTLQMTSLTAADTATYFCARAGYYNYGSAGDISPSSFKLWGPGTLVTVSS
# VL: DIVMTQTPASVEAAVGGTVTINCQASQSISTALAWYQQKPGQPPKLLIYTASKVASGVPSRFSGSGSGTQFTLTISDLECADAATYYCQNYYYSSSSITFGGGTEVVVK
# notes: also called 98G10 Y112S (VH)
# B14: 98G10-H-2 (antibody, V domains shown)
# VH: QEQLEESGGDLVKPEGSLTLTCTASGFSFSASYYICWVRQAPGKGLEWIACIYGGSSGSAYYASWAKGRFTISKTSSTTVTLQMTSLTAADTATYFCARAGYYNYGSAGDIYPSSFKLWGPGTLVTVSS
# VL: DIVMTQTPASVEAAVGGTVTINCQASQSISTALAWYQQKPGQPPKLLIYTASKVASGVPSRFSGSGSGTQFTLTISDLECADAATYYCQNYYYSSSSITFGGGTEVVVK
# notes: also called 98G10 W34Y (VH)
# B15: 98G10-H-14 (antibody, V domains shown)
# VH: QEQLEESGGDLVKPEGSLTLTCTASGFSFSASYDICWVRQAPGKGLEWIACIYGGSSGSAYYASWAKGRFTISKTSSTTVTLQMTSLTAADTATYFCARAGYYNYGSAGDISPSSFKLWGPGTLVTVSS
# VL: DIVMTQTPASVEAAVGGTVTINCQASQSISTALAWYQQKPGQPPKLLIYTASKVASGVPSRFSGSGSGTQFTLTISDLECADAATYYCQNYYYSSSSITFGGGTEVVVK
# notes: also called 98G10 W34D, Y112S (VH)
# B16: 98G10-H-6 (antibody, V domains shown)
# VH: QEQLEESGGDLVKPEGSLTLTCTASGFSFSASYWICWVRQAPGKGLEWIACIYGGSSGSAYYASWAKGRFTISKTSSTTVTLQMTSLTAADTATYFCARAGYYNYGSAGDIQPSSFKLWGPGTLVTVSS
# VL: DIVMTQTPASVEAAVGGTVTINCQASQSISTALAWYQQKPGQPPKLLIYTASKVASGVPSRFSGSGSGTQFTLTISDLECADAATYYCQNYYYSSSSITFGGGTEVVVK
# notes: also called 98G10 Y112Q (VH)
# B17: 98G10-H-13 (antibody, V domains shown)
# VH: QEQLEESGGDLVKPEGSLTLTCTASGFSFSASYKICWVRQAPGKGLEWIACIYGGSSGSAYYASWAKGRFTISKTSSTTVTLQMTSLTAADTATYFCARAGYYNYGSAGDISPSSFKLWGPGTLVTVSS
# VL: DIVMTQTPASVEAAVGGTVTINCQASQSISTALAWYQQKPGQPPKLLIYTASKVASGVPSRFSGSGSGTQFTLTISDLECADAATYYCQNYYYSSSSITFGGGTEVVVK
# notes: also called 98G10 W34K, Y112S (VH)
# B18: 98G10-H-10 (antibody, V domains shown)
# VH: QEQLEESGGDLVKPEGSLTLTCTASGFSFSASYTICWVRQAPGKGLEWIACIYGGSSGSAYYASWAKGRFTISKTSSTTVTLQMTSLTAADTATYFCARAGYYNYGSAGDIRPSSFKLWGPGTLVTVSS
# VL: DIVMTQTPASVEAAVGGTVTINCQASQSISTALAWYQQKPGQPPKLLIYTASKVASGVPSRFSGSGSGTQFTLTISDLECADAATYYCQNYYYSSSSITFGGGTEVVVK
# notes: also called 98G10 W34T, Y112R (VH)
# Legend:
# [1] = target: T1, human NMI (N-myc Interacting protein), recombinant protein (human, UniProt Q13287 1-307, limits assumed); assay: ELISA EC50 against parent 240B10-1
# T1 construct: Gene ID: 9111; also called hNMI; antigen
# T1 sequence (looked up): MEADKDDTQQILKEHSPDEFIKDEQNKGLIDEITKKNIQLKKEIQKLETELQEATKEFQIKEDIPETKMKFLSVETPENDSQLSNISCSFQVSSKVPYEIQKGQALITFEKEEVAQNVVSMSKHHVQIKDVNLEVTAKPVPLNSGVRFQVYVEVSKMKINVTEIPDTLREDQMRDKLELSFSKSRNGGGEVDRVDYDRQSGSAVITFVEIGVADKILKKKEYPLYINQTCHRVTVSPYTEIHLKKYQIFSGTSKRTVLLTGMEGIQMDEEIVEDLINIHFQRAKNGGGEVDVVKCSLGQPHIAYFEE
# [2] = target: T1, human NMI (N-myc Interacting protein), …; assay: ELISA EC50 against parent 98G10
# [3] = target: T1, human NMI (N-myc Interacting protein), …; assay: ELISA, binding to hNMI
Binder,Fold decrease in affinity [1],Fold decrease in affinity [2],EC50 [3]
B1,> 500 fold,–,–
B2,–,0.77 fold,0.024 µg/mL
B3,–,0.9 fold,0.028 µg/mL
B4,–,0.84 fold,0.026 µg/mL
B5,–,10 fold,0.311 µg/mL
B6,–,2.13 fold,0.066 µg/mL
B7,–,1.71 fold,0.053 µg/mL
B8,–,50.4 fold,1.56 µg/mL
B9,–,2.61 fold,0.081 µg/mL
B10,–,51.3 fold,1.59 µg/mL
B11,–,59.7 fold,1.85 µg/mL
B12,–,2.81 fold,0.087 µg/mL
B13,–,2.65 fold,0.082 µg/mL
B14,–,16.4 fold,0.507 µg/mL
B15,–,48.1 fold,1.49 µg/mL
B16,–,2.97 fold,0.092 µg/mL
B17,–,54.1 fold,1.68 µg/mL
B18,–,60 fold,1.86 µg/mL
